Target: T1, Epithelial Cell Adhesion Molecule (EpCAM) (human, UniProt P16422 24-314)
T1 construct: whole, on cells; Target is endogenous EpCAM in patient tumor tissue: in vivo targeting for m1, FFPE sections for the IHC antibodies
T1 sequence (looked up): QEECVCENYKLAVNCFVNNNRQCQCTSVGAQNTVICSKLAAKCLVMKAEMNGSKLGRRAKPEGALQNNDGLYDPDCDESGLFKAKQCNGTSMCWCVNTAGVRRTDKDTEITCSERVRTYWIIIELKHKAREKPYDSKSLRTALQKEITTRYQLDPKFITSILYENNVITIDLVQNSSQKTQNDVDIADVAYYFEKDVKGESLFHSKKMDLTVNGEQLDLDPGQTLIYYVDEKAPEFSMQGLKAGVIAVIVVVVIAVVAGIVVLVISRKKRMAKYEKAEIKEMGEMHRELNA
Experiment: NIR fluorescence microscopy (Axio scan) of metastatic lymph node sections after IV dosing, overlaid with EpCAM IHC

B1: VB5-845D-800CW (Fab, V domains shown)
VH: EVQLQQSGPGLVQPGGSVRISCAASGYTFTAYGMNWVRQAPGKGLEWMGWINTYTGESTYADSFKGRFEFSLDTHNSSAYLQIQSLREEDTAVYYCARFAIQGDYWGQGTLVTVSS
VL: DIQMTQSPSSLSASVGDRVTITCKSTKSLLHSNGITYLYWYQQKPGSAPKLLIYQMSHLASGVPSRFSSSGSGTDFTLTISSLQPEDFATYYCAQNLEIPRTFGQGTKVEIKR
modifications: IRDye 800CW conjugated by N-hydroxysuccinimide ester chemistry to primary amines (sites and chain not stated)
binding result: binds

From US20250339564A1 (ACADEMISCH ZIEKENHUIS LEIDEN H O D N LUMC, published 2025)
